# Reference: patent US20220002426A1 (BIOINVENT INTERNATIONAL, published 2022)
# Where two headings read alike, the source gives them in different places.
# T1: recombinant human TNFR2-Fc protein (Sino Biological) (human, UniProt P20333 23-257, limits assumed)
# T1 construct: bought; also called human TNFR2 protein; not shown: Fc part of the bought fusion protein; not described
# T1 sequence (looked up): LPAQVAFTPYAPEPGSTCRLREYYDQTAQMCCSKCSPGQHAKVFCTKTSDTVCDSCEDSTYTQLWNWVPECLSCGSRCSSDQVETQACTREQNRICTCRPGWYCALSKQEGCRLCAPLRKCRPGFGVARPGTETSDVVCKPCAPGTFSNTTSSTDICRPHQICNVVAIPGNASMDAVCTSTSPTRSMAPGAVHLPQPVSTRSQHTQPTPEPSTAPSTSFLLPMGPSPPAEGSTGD
# T2: wild type, full length human TNFR2 (on cells) (human, UniProt P20333 23-461)
# T2 construct: whole, on cells; also called hTNFR2; TNFRII
# T2 sequence (looked up): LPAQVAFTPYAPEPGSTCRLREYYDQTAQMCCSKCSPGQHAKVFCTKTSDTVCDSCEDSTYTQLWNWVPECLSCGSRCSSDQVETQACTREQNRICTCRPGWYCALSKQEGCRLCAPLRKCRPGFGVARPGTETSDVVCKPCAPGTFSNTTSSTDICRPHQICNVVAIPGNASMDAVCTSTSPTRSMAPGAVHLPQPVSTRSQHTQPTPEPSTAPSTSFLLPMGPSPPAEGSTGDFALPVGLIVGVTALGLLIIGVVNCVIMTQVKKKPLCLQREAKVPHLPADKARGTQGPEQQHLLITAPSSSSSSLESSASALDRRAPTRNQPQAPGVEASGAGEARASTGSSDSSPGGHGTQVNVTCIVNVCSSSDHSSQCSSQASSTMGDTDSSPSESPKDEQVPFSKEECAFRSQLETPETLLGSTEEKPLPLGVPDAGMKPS
# T3: wild type, full length murine TNFR2 (on cells) (mouse, UniProt P25119 23-474)
# T3 construct: whole, on cells; also called mTNFR2; mouse TNFR2
# T3 sequence (looked up): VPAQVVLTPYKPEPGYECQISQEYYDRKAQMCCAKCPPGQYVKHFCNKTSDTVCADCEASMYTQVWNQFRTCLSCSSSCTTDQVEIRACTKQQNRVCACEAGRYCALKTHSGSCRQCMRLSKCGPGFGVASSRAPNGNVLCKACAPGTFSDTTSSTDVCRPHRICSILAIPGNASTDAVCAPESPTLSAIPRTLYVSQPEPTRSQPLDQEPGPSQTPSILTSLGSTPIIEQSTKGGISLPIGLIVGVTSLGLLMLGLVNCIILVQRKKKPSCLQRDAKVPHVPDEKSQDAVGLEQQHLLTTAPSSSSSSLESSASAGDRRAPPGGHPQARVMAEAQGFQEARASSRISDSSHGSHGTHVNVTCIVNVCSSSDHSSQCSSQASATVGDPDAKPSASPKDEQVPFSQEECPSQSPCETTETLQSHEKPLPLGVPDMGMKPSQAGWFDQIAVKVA
# T4: hTNFRII (Sinobioologicals Cat nr10414-H08H) (human, UniProt P20333 23-257)
# T4 construct: bought; also called immobilized TNFR2
# T4 sequence (looked up): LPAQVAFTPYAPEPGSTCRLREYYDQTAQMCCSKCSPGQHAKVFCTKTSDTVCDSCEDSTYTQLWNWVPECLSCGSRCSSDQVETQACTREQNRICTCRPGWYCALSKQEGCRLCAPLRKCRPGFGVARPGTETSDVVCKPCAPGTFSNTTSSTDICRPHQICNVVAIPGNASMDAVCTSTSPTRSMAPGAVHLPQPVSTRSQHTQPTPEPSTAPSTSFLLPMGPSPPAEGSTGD
# T5: mTNFRII (Sinobioologicals Cat No. 50128 M08H) (mouse, UniProt P25119 23-258, limits assumed)
# T5 construct: bought
# T5 sequence (looked up): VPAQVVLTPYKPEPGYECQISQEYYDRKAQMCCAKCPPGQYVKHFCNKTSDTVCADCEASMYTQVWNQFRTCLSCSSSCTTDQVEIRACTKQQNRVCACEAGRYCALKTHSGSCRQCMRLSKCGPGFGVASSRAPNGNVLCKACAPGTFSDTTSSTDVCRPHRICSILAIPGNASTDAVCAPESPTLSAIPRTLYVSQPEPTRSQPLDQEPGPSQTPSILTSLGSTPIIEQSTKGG
# T6: Cynomolgus TNFR2 (on cynomolgus CD4+ T cells) (cynomolgus monkey (Macaca fascicularis), UniProt A0A2K5VET2 132-571)
# T6 construct: whole, on cells; also called cmTNFR2; cynoTNFR2
# T6 sequence: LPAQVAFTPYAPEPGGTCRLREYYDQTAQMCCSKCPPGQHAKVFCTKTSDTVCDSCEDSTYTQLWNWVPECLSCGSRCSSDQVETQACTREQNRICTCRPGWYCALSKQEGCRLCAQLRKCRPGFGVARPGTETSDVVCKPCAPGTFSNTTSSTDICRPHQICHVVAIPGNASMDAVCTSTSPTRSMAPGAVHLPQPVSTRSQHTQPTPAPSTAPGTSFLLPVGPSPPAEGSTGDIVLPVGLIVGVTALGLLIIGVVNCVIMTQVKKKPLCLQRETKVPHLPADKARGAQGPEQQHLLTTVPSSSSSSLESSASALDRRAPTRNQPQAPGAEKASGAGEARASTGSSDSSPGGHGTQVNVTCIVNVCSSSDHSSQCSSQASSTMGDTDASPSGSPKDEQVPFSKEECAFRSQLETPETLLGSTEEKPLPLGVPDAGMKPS
# T7: recombinant mouse TNFR2-Fc protein (Sino Biological) (mouse, UniProt P25119 23-258, limits assumed)
# T7 construct: bought; also called mTNFR2 protein; mTNFR2; not shown: Fc part of the bought fusion protein; not described
# T7 sequence (looked up): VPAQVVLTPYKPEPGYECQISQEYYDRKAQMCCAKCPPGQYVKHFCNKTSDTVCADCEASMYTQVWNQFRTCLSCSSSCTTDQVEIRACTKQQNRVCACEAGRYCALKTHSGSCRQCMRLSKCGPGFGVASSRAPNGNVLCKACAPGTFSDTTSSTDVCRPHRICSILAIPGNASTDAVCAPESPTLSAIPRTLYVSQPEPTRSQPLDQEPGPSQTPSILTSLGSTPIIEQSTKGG
# What was measured:
# [1] = molecular target: T1, recombinant human TNFR2-Fc protein …; assay: ELISA, coated TNFR2-Fc
# Protocol: (§1) 96-well plates (Lumitrac 600 LIA plate, Greiner) were coated overnight at 4° C. with recombinant human or mouse TNFR2-Fc protein (Sino Biological) at 1 pmol/well. After washing, titrated doses of anti-TNFR2 mAbs from 20 μg/ml to 0.1 ng/ml (133 nM to 1 pM) were allowed to bind for 1 hour. Plates were then washed again, and bound antibodies were detected with an anti-human-F(ab)-HRP secondary antibody (Jackson ImmunoResearch) diluted in 50 ng/ml. Super Signal ELISA Pico (Thermo Scientific) was used as substrate and the plates were analyzed using Tecan Ultra Microplate reader.
# [2] = molecular target: T2, wild type, full length human TNFR2 (on …); assay: FACS, activated CD4+ T cells
# Protocol: (§2) The ability and affinity of TNFR2 n-CoDeR® antibodies to bind TNFR2 expressed on cells were obtained using in vitro activated CD4⁺ T cells. Human CD4⁺ T cells were stimulated with 50 ng/ml rhIL-2 (R&D systems) and Dynabeads® T-Activator CD3/CD28 for T-Cell Expansion and Activation (Gibco) 2-3 days at 37 degrees. […] Cells were then incubated with an APC conjugated a-human IgG secondary ab (Jackson) followed by analysis by flow cytometry (FACSVerse, BD).
# [3] = molecular target: T2, wild type, full length human TNFR2 (on …); assay: FACS, activated CD4+ T cells; remark: listed apart in the source
# Protocol: as §2
# [4] = molecular target: T3, wild type, full length murine TNFR2 (on …); assay: FACS, transfected HEK293 cells
# [5] = molecular target: T4, hTNFRII (Sinobioologicals Cat …); assay: blocking ELISA, coated hTNFRII, competitor hTNF-α-bio 5 nM
# Protocol: (§3) 96-well plates were coated with hTNFRII (Sinobioologicals Cat nr10414-H08H) or mTNFRII (Sinobioologicals Cat No. 50128 M08H) at 2.5 pmol/well in ELISA coating buffer (0.1 M sodium carbonate pH 9.5) and incubated overnight at 4° C. After washing in ELISA wash buffer (PBS with 0.05% Tween20), the plates were incubated under slow agitation for 1 h in room temperature with n-CoDeR® mAbs at 10 μg/ml (one-dose ELISA) or 33 nM and subsequent 1:2 dilutions (titration ELISA) in block buffer containing 0.45% fish gelatin. […] Thereafter, plates were washed. For the human ELISAs, Streptavidin-HRP (Jackson Cat No. 016-030-084) diluted 1:2000 in block buffer were added and again incubated for 1 h at room temperature followed by washes first in ELISA buffer and then in Tris buffer (pH 9.8). The substrate (Super Signal ELISA Pico from Thermo Scientific Cat. No. 37069) were thereafter diluted according to the manufacturers instruction, added to the wells and incubated in darkness for 10 min before reading in a Tecan Ultra. […] After washing, anti-Rabbit-HRP diluted 1:10 000 in block buffer was added and again incubated for 1 h at room temperature. Substrate adding and reading were performed as above.
# [6] = molecular target: T5, mTNFRII (Sinobioologicals Cat No. 50128 …); assay: ELISA, coated mTNFRII, mTNF-α 2 nM, rabbit anti-mTNF-α and anti-rabbit-HRP
# Protocol: as §3
# [7] = molecular target: T6, Cynomolgus TNFR2 (on cynomolgus CD4+ T …); assay: FACS, stimulated cynomolgus CD4+ T cells, % over isotype
# Protocol: To validate the cross-reactivity of TNFR2 antibodies to Cynomolgus, Cynomolgus CD4⁺ T cells were stimulated 2 days with 50 ng/ml PMA (Sigma) and 100 ng/ml lonomycin (Sigma). Cells were incubated with TNFR2 specific n-CoDeR® antibodies at 3 different concentrations (0.1, 1 and 10 μg/ml) and then incubated with an APC conjugated secondary a-human IgG reagent (Jackson).
# [8] = molecular target: T7, recombinant mouse TNFR2-Fc protein …; assay: ELISA, coated TNFR2-Fc
# Protocol: as §1
# [9] = molecular target: T3, wild type, full length murine TNFR2 (on …); assay: FACS, activated mouse CD4+ T cells
EC50 [1] [nM],EC50 [3] [nM],binding result [4],EC50 [5] [nM],other results,Binder
0.75,53,,,EC50 [2]: 52.7 nM,"001-C03 (antibody, V domains shown, IgG; also called 1-003; 001-0O3) VH: EVQLLESGGGLVQPGGSLRLSCAASGFTFSNAWMSWVRQAPGKGLEWVSAISVSGINTYYADSVKGRFTISRDNSKNTLYLQMNSLRAEDTAVYYCARDTGSLGVDYWGQGTLVTVSS VL: QSVLTQPPSASGTPGQRVTISCSGSSSNIGSNTVNWYQQLPGTAPKLLIYRNNQRPSGVPDRFSGSKSGTSASLAISGLRSEDEADYYCQSYDSSLSISVFGGGTKLTVLG"
0.29,3.3,no binding,1.6,,"001-G10 (antibody, V domains shown, IgG) VH: EVQLLESGGGLVQPGGSLRLSCAASGFTFSAYGMHWVRQAPGKGLEWVAVVSYDGREKHYADSVKGRFTISRDNSKNTLYLQMNSLRAEDTAVYYCARSDGGYDSDSGYYWGQGTLVTVSS VL: QSVLTQPPSASGTPGQRVTISCSGSTSNIGSNFVYWYQQLPGTAPKLLIYDNNKRPSGVPDRFSGSKSGTSASLAISGLRSEDEADYYCSSYAYSDNILFGGGTKLTVLG"
,,,,binding result [6]: binds,"mTNF-α (Gibco Cat. No. PMC3014) (ligand, mouse, UniProt P06804 80-235, looked up) LRSSSQNSSDKPVAHVVANHQVEEQLEWLSQRANALLANGMDLKDNQLVVPADGLYLVYSQVLFKGQGCPDYVLLTHTVSRFAISYQEKVNLLSAVKSPCPKDTPEGAELKPWYEPIYLGGVFQLEKGDQLSAEVNLPKYLDFAESGQVYFGVIAL"
0.17,1.2,no binding,0.3,,"005-B08 (antibody, V domains shown, IgG) VH: EVQLLESGGGLVQPGGSLRLSCAASGFTFSDYYMSWIRQAPGKGLEWVAIISYDGGGKYFADPVKGRFTISRDNSKNTLYLQMNSLRAEDTAVYYCARYYGDGGFDPWGQGTLVTVSS VL: not shown"
0.2,0.59,,0.4,EC50 [2]: 0.6 nM,"004-H02 (antibody, V domains shown, IgG) VH: EVQLLESGGGLVQPGGSLRLSCAASGFTFDDYGMSWVRQAPGKGLEWVSTIYSGDNAYYGASVRGRFTISRDNSKNTLYLQMNSLRAEDTAVYYCARVYSSSWRKRAFDIWGQGTLVTVSS VL: not shown"
1.7,18,,3.2,binding result [7]: no binding (tested: 10 µg/ml),"001-G04 (antibody, V domains shown, IgG) VH: EVQLLESGGGLVQPGGSLRLSCAASGFTFNTYSMNWVRQAPGKGLEWVSVLYSDDDTHYADSVKGRFTISRDNSKNTLYLQMNSLRAEDTAVYYCARDCGGDCHSGDDAFDIWGQGTLVTVSS VL: not shown"
0.15,2.5,no binding,,,"001-F06 (antibody, V domains shown, IgG) VH: EVQLLESGGGLVQPGGSLRLSCAASGFTFSSYAMHWVRQAPGKGLEWVSAISGGATTTYYADSVKGRFTISRDNSKNTLYLQMNSLRAEDTAVYYCAKGGTGDPYYFDYWGQGTLVTVSS VL: QSVLTQPPSASGTPGQRVTISCTGSSSNIGAGYDVHWYQQLPGTAPKLLIYRNNQRPSGVPDRFSGSKSGTSASLAISGLRSEDEADYYCAARDDGLSGPVFGGGTKLTVLG"
,,,,EC50 [8]: 1.4 nM; EC50 [9]: 0.11 nM,"005-A05 (antibody, V domains shown, also called 5-A05 (mouse)) VH: EVQLLESGGGLVQPGGSLRLSCAASGFTFSSYAMSWVRQAPGKGLEWVSTIIGSGANTWYADSVKGRFTISRDNSKNTLYLQMNSLRAEDTAVYYCARHEGYYYYGMDVWGQGTLVTVSS VL: QSVLTQPPSASGTPGQRVTISCTGSSSNIGAGYVVHWYQQLPGTAPKLLIYGNSNRPSGVPDRFSGSKSGTSASLAISGLRSEDEADYYCAAWDDSLNGRVFGGGTKLTVLG"
